In patent US20180127513A1 (published 2018) one finds Kd data, which are given here for five molecules.

T1: human CD73 on cells (UniProt P21589 27-549)
T1 chain: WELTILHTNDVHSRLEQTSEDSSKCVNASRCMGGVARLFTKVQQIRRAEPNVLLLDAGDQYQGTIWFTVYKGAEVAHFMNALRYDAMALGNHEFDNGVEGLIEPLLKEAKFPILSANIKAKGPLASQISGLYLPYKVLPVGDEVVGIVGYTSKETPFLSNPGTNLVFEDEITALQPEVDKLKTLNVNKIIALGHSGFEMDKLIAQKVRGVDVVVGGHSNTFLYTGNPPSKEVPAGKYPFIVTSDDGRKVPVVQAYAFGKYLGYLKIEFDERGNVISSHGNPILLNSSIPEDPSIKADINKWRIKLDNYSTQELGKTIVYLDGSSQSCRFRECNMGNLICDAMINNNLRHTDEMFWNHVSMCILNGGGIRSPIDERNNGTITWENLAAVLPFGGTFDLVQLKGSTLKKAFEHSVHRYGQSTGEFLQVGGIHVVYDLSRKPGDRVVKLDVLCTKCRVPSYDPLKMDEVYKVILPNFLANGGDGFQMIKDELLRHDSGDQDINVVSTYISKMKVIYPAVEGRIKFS

B1: 11F11 (antibody, V domains shown)
VH: QVQLVESGGGVVQPGRSLRLSCATSGFTFSNYGMHWVRQAPGKGLEWVAVILYDGSNKYYPDSVKGRFTISRDNSKNTLYLQMNSLRAEDTAVYYCARGGSSWYPDSFDIWGQGTMVTVSS
VL: DIQMTQSPSSLSASVGDRVTITCRASQGISSWLAWYQQKPEKAPKSLIYAASSLQSGVPSRFSGSGSGTDFTLTISSLQPEDFATYYCQQYNSYPLTFGGGTKVEIKR
B2: CD73.10-IgG2-C219S (antibody)
heavy: QVQLVESGGGVVQPGRSLRLSCAASGFTFSNYGMHWVRQAPGKGLEWVAVIWYDESNKYYPDSVKGRFTISRDNSKNTLYLQMNSLRAEDTAVYYCARGGSSWYPDSFDIWGQGTMVTVSSASTKGPSVFPLAPCSRSTSESTAALGCLVKDYFPEPVTVSWNSGALTSGVHTFPAVLQSSGLYSLSSVVTVPSSNFGTQTYTCNVDHKPSNTKVDKTVERKSCVECPPCPAPPVAGPSVFLFPPKPKDTLMISRTPEVTCVVVDVSHEDPEVQFNWYVDGVEVHNAKTKPREEQFNSTFRVVSVLTVVHQDWLNGKEYKCKVSNKGLPAPIEKTISKTKGQPREPQVYTLPPSREEMTKNQVSLTCLVKGFYPSDIAVEWESNGQPENNYKTTPPMLDSDGSFFLYSKLTVDKSRWQQGNVFSCSVMHEALHNHYTQKSLSLSPG
light: not shown
B3: CD73.4-IgG2-C219S-IgG1.1f (antibody)
heavy: QVQLVESGGGVVQPGRSLRLSCAASGFTFSNYGMHWVRQAPGKGLEWVAVILYDGSNKYYPDSVKGRFTISRDNSKNTLYLQMNSLRAEDTAVYYCARGGSSWYPDSFDIWGQGTMVTVSSASTKGPSVFPLAPCSRSTSESTAALGCLVKDYFPEPVTVSWNSGALTSGVHTFPAVLQSSGLYSLSSVVTVPSSNFGTQTYTCNVDHKPSNTKVDKTVERKSCVECPPCPAPPVAGPSVFLFPPKPKDTLMISRTPEVTCVVVDVSHEDPEVKFNWYVDGVEVHNAKTKPREEQYNSTYRVVSVLTVLHQDWLNGKEYKCKVSNKALPSSIEKTISKAKGQPREPQVYTLPPSREEMTKNQVSLTCLVKGFYPSDIAVEWESNGQPENNYKTTPPVLDSDGSFFLYSKLTVDKSRWQQGNVFSCSVMHEALHNHYTQKSLSLSPG
light: not shown
modifications: N-terminal Gln 94% pyro-Q; 97% of heavy chains lack the C-terminal Lys
B4: CD73.4-IgG2-C219S (antibody)
heavy: B2 heavy with W52L, E55G
light: not shown
B5: CD73.10-IgG2-C219S-IgG1.1f (antibody)
heavy: B3 heavy with L52W, G55E
light: not shown

For orientation: Kd means the concentration at which binding is half-saturated.

Residue numbers refer to the chain shown, from its start. In names and notes the source's numbering stands.

The assay addresses T1, human CD73 on cells. The experiment in a line: FACS cell binding; Calu6 cells.
The molecule B1 came in with an equilibrium dissociation constant (Kd) of 0.188 µg/mL. B2 returned a Kd of 0.162 µg/mL.

For the molecule B3, the Kd was 0.0964 µg/mL. Molecule B4 showed a dissociation constant Kd of 0.0826 µg/mL. On to B5, for which the Kd is 0.156 µg/mL.
